Source: patent US20240261333A1 (published 2024)

T1: GANAB (human, UniProt Q14697 29-944)
T1 construct: also called NP_938148.1 (+1)
T1 sequence (looked up): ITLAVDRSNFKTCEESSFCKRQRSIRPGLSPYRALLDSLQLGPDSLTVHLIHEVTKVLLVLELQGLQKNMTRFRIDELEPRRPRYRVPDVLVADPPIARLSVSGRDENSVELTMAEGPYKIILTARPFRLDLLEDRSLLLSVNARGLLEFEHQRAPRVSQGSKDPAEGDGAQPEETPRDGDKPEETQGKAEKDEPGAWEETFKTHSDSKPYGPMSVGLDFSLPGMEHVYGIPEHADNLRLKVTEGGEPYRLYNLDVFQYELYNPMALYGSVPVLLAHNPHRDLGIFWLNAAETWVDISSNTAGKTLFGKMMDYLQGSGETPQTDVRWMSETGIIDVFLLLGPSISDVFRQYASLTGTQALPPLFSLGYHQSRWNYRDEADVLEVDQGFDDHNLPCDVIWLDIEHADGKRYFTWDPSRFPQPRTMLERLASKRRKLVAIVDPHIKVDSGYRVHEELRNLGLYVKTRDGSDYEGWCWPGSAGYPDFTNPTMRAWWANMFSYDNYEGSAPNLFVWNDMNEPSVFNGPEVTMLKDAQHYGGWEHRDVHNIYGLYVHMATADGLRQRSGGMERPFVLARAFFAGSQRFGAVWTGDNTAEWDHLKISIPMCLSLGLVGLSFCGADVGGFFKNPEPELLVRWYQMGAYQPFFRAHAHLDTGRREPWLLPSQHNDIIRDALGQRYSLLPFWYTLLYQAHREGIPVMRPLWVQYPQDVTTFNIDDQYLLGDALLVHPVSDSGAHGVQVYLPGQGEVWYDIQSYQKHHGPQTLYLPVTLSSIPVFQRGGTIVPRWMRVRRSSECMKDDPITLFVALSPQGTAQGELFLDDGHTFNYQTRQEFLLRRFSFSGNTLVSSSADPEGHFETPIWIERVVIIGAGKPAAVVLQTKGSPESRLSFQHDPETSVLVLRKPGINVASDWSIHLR

T2: RARS (human, UniProt P54136 1-660)
T2 construct: also called NP_002878.2
T2 sequence (looked up): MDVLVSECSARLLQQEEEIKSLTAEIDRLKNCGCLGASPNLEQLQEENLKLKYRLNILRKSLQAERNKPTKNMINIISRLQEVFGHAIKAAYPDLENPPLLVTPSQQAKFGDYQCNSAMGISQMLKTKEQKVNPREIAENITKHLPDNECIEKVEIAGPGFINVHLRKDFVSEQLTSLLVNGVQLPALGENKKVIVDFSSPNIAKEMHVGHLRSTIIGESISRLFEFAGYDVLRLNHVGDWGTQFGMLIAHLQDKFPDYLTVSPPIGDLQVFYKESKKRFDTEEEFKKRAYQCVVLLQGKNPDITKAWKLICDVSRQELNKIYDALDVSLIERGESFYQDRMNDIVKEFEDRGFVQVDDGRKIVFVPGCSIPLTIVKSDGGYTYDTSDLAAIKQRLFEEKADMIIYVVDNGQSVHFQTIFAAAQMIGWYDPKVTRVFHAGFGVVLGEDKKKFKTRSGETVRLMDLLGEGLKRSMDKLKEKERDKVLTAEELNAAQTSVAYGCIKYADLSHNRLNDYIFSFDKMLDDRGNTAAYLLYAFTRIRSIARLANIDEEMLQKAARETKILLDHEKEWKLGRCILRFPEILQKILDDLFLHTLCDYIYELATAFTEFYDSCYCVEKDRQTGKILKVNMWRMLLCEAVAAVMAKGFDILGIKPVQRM

B1: N-terminal FLAG tagged B3GNT2 (enzyme, human, UniProt Q9NY97 1-397, looked up)
chain: MSVGRRRIKLLGILMMANVFIYFIMEVSKSSSQEKNGKGEVIIPKEKFWKISTPPEAYWNREQEKLNRQYNPILSMLTNQTGEAGRLSNISHLNYCEPDLRVTSVVTGFNNLPDRFKDFLLYLRCRNYSLLIDQPDKCAKKPFLLLAIKSLTPHFARRQAIRESWGQESNAGNQTVVRVFLLGQTPPEDNHPDLSDMLKFESEKHQDILMWNYRDTFFNLSLKEVLFLRWVSTSCPDTEFVFKGDDDVFVNTHHILNYLNSLSKTKAKDLFIGDVIHNAGPHRDKKLKYYIPEVVYSGLYPPYAGGGGFLYSGHLALRLYHITDQVHLYPIDDVYTGMCLQKLGLVPEKHKGFRTFDIEEKNKNNICSYVDLMLVHSRKPQEMIDIWSQLQSAHLKC
notes: FLAG-tagged ORF overexpressed in A375 cells; bait of the co-IP with mouse anti-FLAG; also called N-FLAG B3GNT2; N-term FLAG; not shown: N-terminal FLAG tag
B2: N-terminal FLAG tagged B3GNT2 (enzyme, human, UniProt Q9NY97 1-397, looked up)
chain: B1 chain
notes: Bait of the co-IP; pulled down with mouse anti-FLAG (Millipore Sigma F3165) from cell lysate; also called N-FLAG B3GNT2; N-term FLAG; not shown: N-terminal FLAG tag

Experiments:
[1] = target: T3, VIM (human, UniProt P08670 2-466); assay: co-IP with mouse anti-FLAG from lysate of cells overexpressing N-FLAG B3GNT2, then mass spectrometry
T3 construct: Identified by mass spectrometry in the co-IP; also called NP_003371.2
T3 sequence (P08670 2-466 limits assumed): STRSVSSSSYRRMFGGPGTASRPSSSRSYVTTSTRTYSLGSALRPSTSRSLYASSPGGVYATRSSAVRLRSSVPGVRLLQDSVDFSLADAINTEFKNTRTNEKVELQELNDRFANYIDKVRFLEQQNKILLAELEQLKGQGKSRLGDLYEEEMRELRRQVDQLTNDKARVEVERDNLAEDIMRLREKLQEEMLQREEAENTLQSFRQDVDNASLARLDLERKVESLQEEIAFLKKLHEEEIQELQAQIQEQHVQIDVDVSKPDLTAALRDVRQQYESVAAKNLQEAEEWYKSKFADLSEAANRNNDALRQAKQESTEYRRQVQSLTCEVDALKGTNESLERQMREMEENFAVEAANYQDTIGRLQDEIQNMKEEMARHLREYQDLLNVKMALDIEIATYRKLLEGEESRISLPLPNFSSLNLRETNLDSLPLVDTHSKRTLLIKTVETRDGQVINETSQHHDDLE
Procedure: (§1) Cells were plated in 10-cm cell culture dishes and grown to 60-80% confluency. For each condition, two biological replicates were harvested for co-IP. Cells were washed with PBS and 4 mL of lysis buffer (20 mM HEPES, 1% Triton X-100, 150 mM NaCl, 1 mM EDTA, and 10% glycerol) containing protease inhibitor cocktail was added. Cells were scraped and lysate was incubated at 4° C. under rotary agitation for 1 h. Lysate was centrifuged at 14,000×g for 10 min at 4° C. Supernatant was transferred to a new tube and an aliquot was taken as the input. […] For Western blots, 10 μg/mL Chicken Anti-FLAG (Aves labs ET-DY100) and IgY control (R&D Systems AB-101-C) antibodies were biotinylated (Thermo Fisher Scientific 90407) and added to the respective conditions. Lysates with antibodies were incubated at 4° C. under rotary agitation overnight. For each mL of lysate, 50 μL of Pierce Protein A/G Magnetic Beads (Mass spectrometry; Thermo Fisher Scientific 88803) or Pierce Streptavidin Magnetic Beads (Western blot; Thermo Fisher Scientific 88817) was washed twice with lysis buffer. Lysates with antibodies were added to the beads and incubated at 4° C. under rotary agitation for 4 h. Beads were washed with lysis buffer 3 times and resuspended in lysis buffer for storage.
(§2) Magnetic beads were resuspended in 100 mM Tris pH 7.8, reduced, alkylated and digested with trypsin at 37° ° C. overnight. This solution was subjected to solid phase extraction to concentrate the peptides and remove unwanted reagents followed by injection onto a Shimadzu HPLC with fraction collector. Eight fractions were collected and after concentration were injected on a Waters NanoAcquity HPLC equipped with a self-packed Aeris 3 μm C18 analytical column 0.075 mm by 20 cm, (Phenomenex). Peptides were eluted using standard reverse-phase gradients. The effluent from the column was analyzed using a Thermo Orbitrap Elite mass spectrometer (nanospray configuration) operated in a data dependent manner for 54 minutes. The resulting fragmentation spectra were correlated against the known database using Proteome Discover 1.4 (Thermo Fisher Scientific).

[2] = target: T4, PABPC1 (human, UniProt P11940 1-636); assay: as above
T4 construct: Identified by mass spectrometry in the co-IP; also called NP_002559.2
T4 sequence (P11940 whole entry): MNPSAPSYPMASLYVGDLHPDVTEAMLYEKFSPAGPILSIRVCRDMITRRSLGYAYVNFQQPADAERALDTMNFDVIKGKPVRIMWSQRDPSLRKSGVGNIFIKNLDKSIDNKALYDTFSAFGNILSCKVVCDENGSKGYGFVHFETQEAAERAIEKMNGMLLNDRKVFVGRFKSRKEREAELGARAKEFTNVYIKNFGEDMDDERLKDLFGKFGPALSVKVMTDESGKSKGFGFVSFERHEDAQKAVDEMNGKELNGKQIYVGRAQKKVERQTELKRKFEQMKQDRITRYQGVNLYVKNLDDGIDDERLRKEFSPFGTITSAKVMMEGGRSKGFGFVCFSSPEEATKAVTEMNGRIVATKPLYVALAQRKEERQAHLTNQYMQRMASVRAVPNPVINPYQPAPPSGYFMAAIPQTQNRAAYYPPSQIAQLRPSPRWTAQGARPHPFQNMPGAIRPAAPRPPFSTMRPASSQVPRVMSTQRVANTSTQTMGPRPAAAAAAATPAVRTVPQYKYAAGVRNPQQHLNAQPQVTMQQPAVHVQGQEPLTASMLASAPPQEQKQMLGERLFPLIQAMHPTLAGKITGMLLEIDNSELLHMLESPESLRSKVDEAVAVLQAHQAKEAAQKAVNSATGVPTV
Procedure: as §1, §2

[3] = target: T5, ANXA2 (human, UniProt P07355-2 1-357, limits assumed); assay: as above
T5 construct: Identified by mass spectrometry in the co-IP; also called NP_001002858.1 (+1)
T5 sequence (P07355 other isoform, or with tags, fused parts or gaps limits assumed): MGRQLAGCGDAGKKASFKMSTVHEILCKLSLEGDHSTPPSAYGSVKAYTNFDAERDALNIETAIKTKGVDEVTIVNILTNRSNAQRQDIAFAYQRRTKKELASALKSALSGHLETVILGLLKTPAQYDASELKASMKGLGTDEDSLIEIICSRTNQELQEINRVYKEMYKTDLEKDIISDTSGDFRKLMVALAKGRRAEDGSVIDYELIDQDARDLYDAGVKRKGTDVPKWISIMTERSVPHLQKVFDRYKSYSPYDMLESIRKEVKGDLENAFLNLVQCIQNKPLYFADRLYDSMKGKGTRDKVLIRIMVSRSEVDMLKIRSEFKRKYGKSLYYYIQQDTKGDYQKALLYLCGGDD
Procedure: as §1, §2

[4] = target: T1, GANAB; assay: co-IP with anti-FLAG, mass spectrometry; lysate of cells with N-FLAG B3GNT2
[5] = target: RPS4X (human, UniProt P62701 2-263); assay: as above
[6] = target: T2, RARS; assay: as above

Binder	co-IP mass spectrometry count (N-term FLAG) [1]	co-IP mass spectrometry count (N-term FLAG) [2]	co-IP mass spectrometry count (N-term FLAG) [3]	co-IP mass spectrometry count [4]	co-IP mass spectrometry count [5]	co-IP mass spectrometry count [6]
B1	402	31	17	–	–	–
B2	–	–	–	0	14	0
